Measurements from patent US20180155451A1 (published 2018).

T1: FcγRIIb extracellular domain with C-terminal His tag (human, UniProt P31994 43-217)
T1 construct: extracellular domain; Soluble receptor expressed in FreeStyle293 cells, used as analyte in Biacore; also called FcgRIIb; CD32B; not shown: His tag at the C terminus
T1 sequence (looked up): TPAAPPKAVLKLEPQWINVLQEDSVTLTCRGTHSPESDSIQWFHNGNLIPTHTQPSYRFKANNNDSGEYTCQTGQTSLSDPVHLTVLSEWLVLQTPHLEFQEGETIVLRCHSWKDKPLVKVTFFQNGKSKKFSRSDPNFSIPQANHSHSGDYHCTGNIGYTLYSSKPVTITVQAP

T2: FcγRIIa R (extracellular domain, C-terminal His tag) (human, UniProt P12318 34-217)
T2 construct: extracellular domain; also called FcgRIIa R type; 2aR; not shown: His tag attached to the C terminus
T2 sequence (looked up): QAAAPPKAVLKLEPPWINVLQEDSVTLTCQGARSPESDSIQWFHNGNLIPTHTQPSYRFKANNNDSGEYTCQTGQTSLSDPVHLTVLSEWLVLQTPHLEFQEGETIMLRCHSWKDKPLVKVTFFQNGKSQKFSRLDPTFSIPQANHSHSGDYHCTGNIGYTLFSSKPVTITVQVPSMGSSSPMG

T3: FcγRIIb (extracellular domain, C-terminal His tag) (human, UniProt P31994 43-217)
T3 construct: extracellular domain; also called FcgRIIb; 2b; not shown: His tag attached to the C terminus
T3 sequence (looked up): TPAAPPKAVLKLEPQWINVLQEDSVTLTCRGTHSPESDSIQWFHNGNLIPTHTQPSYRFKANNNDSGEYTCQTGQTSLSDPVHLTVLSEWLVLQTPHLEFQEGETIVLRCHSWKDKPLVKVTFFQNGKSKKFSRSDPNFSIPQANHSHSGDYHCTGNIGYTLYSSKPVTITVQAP

B1: GpH7-A5/GpH7-B3 variant S239_15Y/GpL16-k0 (antibody, human IgG1, kappa)
heavy 1: not shown
heavy 2: not shown
light: DIVMTQSPLSLPVTPGEPASISCQASESLVHSNRNTYLHWYLQKPGQSPQLLIYKVSNRFSGVPDRFSGSGSGTDFTLKISRVEAEDVGVYYCSQNTHVPPTFGQGTKVEIERTVAAPSVFIFPPSDEQLKSGTASVVCLLNNFYPREAKVQWKVDNALQSGNSQESVTEQDSKDSTYSLSSTLTLSKADYEKHKVYACEVTHQGLSSPVTKSFNRGEC
notes: Heterodimerized anti-glypican-3 IgG1; substitution in only one H chain; also called S239Y; He Ab
B2: GpH7-A5/GpH7-B3 variant S239_16H/GpL16-k0 (antibody, human IgG1, kappa)
heavy 1: not shown
heavy 2: not shown
light: DIVMTQSPLSLPVTPGEPASISCQASESLVHSNRNTYLHWYLQKPGQSPQLLIYKVSNRFSGVPDRFSGSGSGTDFTLKISRVEAEDVGVYYCSQNTHVPPTFGQGTKVEIERTVAAPSVFIFPPSDEQLKSGTASVVCLLNNFYPREAKVQWKVDNALQSGNSQESVTEQDSKDSTYSLSSTLTLSKADYEKHKVYACEVTHQGLSSPVTKSFNRGEC
notes: Heterodimerized anti-glypican-3 IgG1; substitution in only one H chain; also called S239H; He Ab
B3: GpH7-A5/GpH7-B3 variant D265_01G/GpL16-k0 (antibody, human IgG1, kappa)
heavy 1: not shown
heavy 2: not shown
light: DIVMTQSPLSLPVTPGEPASISCQASESLVHSNRNTYLHWYLQKPGQSPQLLIYKVSNRFSGVPDRFSGSGSGTDFTLKISRVEAEDVGVYYCSQNTHVPPTFGQGTKVEIERTVAAPSVFIFPPSDEQLKSGTASVVCLLNNFYPREAKVQWKVDNALQSGNSQESVTEQDSKDSTYSLSSTLTLSKADYEKHKVYACEVTHQGLSSPVTKSFNRGEC
notes: Heterodimerized anti-glypican-3 IgG1; alteration in only one H chain (GpH7-B3 side); also called He Ab
B4: GpH7-A5/GpH7-B3 variant D265_02A/GpL16-k0 (antibody, human IgG1, kappa)
heavy 1: not shown
heavy 2: not shown
light: DIVMTQSPLSLPVTPGEPASISCQASESLVHSNRNTYLHWYLQKPGQSPQLLIYKVSNRFSGVPDRFSGSGSGTDFTLKISRVEAEDVGVYYCSQNTHVPPTFGQGTKVEIERTVAAPSVFIFPPSDEQLKSGTASVVCLLNNFYPREAKVQWKVDNALQSGNSQESVTEQDSKDSTYSLSSTLTLSKADYEKHKVYACEVTHQGLSSPVTKSFNRGEC
notes: as for B3
B5: GpH7-A5/GpH7-B3 variant D265_03V/GpL16-k0 (antibody, human IgG1, kappa)
heavy 1: not shown
heavy 2: not shown
light: DIVMTQSPLSLPVTPGEPASISCQASESLVHSNRNTYLHWYLQKPGQSPQLLIYKVSNRFSGVPDRFSGSGSGTDFTLKISRVEAEDVGVYYCSQNTHVPPTFGQGTKVEIERTVAAPSVFIFPPSDEQLKSGTASVVCLLNNFYPREAKVQWKVDNALQSGNSQESVTEQDSKDSTYSLSSTLTLSKADYEKHKVYACEVTHQGLSSPVTKSFNRGEC
notes: as for B3
B6: GpH7-A5/GpH7-B3 variant D265_04F/GpL16-k0 (antibody, human IgG1, kappa)
heavy 1: not shown
heavy 2: not shown
light: DIVMTQSPLSLPVTPGEPASISCQASESLVHSNRNTYLHWYLQKPGQSPQLLIYKVSNRFSGVPDRFSGSGSGTDFTLKISRVEAEDVGVYYCSQNTHVPPTFGQGTKVEIERTVAAPSVFIFPPSDEQLKSGTASVVCLLNNFYPREAKVQWKVDNALQSGNSQESVTEQDSKDSTYSLSSTLTLSKADYEKHKVYACEVTHQGLSSPVTKSFNRGEC
notes: as for B3
B7: GpH7-A5/GpH7-B3 variant D265_06M/GpL16-k0 (antibody, human IgG1, kappa)
heavy 1: not shown
heavy 2: not shown
light: DIVMTQSPLSLPVTPGEPASISCQASESLVHSNRNTYLHWYLQKPGQSPQLLIYKVSNRFSGVPDRFSGSGSGTDFTLKISRVEAEDVGVYYCSQNTHVPPTFGQGTKVEIERTVAAPSVFIFPPSDEQLKSGTASVVCLLNNFYPREAKVQWKVDNALQSGNSQESVTEQDSKDSTYSLSSTLTLSKADYEKHKVYACEVTHQGLSSPVTKSFNRGEC
notes: as for B3

Legend:
[1] = molecular target: T4, FcγRIa extracellular domain with C-terminal His tag (human, UniProt P12314 16-292); experiment: SPR (Biacore); ratio of He/Con_1a (FcγRIa) to He/Con_2b (FcγRIIb) of the same antibody
T4 construct: extracellular domain; Soluble receptor expressed in FreeStyle293 cells, used as analyte in Biacore; also called FcgRI; CD64; not shown: His tag at the C terminus

[2] = molecular target: T4, FcγRIa extracellular domain with …; experiment: SPR (Biacore), antibody captured via antigen peptide, FcγR as analyte; binding relative to GpH7-A5/GpH7-B3/GpL16-k0 = 100
[3] = molecular target: T1, FcγRIIb extracellular domain with …; experiment: as above
[4] = molecular target: T2, FcγRIIa R (extracellular domain, …); experiment: ratio of He/Con_2aR to He/Con_2b (FcγRIIb); SPR relative binding
Experimental: (§1) The heterodimerized antibodies He Abs in which one of the H chains was introduced with an alteration were assayed for their binding activities to each activating FcγR and inhibitory FcγR according to the method described in Example 4. […] The activating FcγRs in FIGS. 26, 27, 28, and 29 are FcγRIa, FcγRIIa (R), FcγRIIa (H), and FcγRIIIa, respectively.
(§2) Analysis of interaction between objective antibody and the FcγR was carried out using Biacore T100 (GE Healthcare). HBS-EP+ (GE Healthcare) was used as the running buffer, and the measurement temperature was set to 25° C. Chips produced by immobilizing the antigen peptide by the amine coupling method to a Series S Sencor Chip CM5 (GE Healthcare), or alternatively, chips produced by allowing preliminarily biotinylated antigen peptides to interact with and immobilize onto a Series S Sensor Chip SA (certified) (GE Healthcare) were used. Antibodies of interest were captured onto an antigen peptide-immobilized chip, and allowed to interact to each FcγR diluted with running buffer. To regenerate and repeatedly use the chip, the antibodies captured on the chip were washed off by reacting 10 mM glycine-HCl, pH 1.5.

[5] = molecular target: T2, FcγRIIa R (extracellular domain, …); experiment: SPR (Biacore), antibody captured on antigen-peptide chip, FcγR as analyte; relative binding amount
Experimental: as §1, §2

[6] = molecular target: T3, FcγRIIb (extracellular domain, …); experiment: as above
Experimental: as §1, §2

T4 sequence (P12314 16-292): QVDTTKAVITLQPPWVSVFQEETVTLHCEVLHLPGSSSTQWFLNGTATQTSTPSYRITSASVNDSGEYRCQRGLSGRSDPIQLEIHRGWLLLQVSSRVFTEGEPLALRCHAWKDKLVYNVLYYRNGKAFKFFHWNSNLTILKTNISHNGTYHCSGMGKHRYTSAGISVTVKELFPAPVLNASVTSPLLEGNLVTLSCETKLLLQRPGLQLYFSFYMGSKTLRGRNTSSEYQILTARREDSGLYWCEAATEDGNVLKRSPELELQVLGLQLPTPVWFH

Binder | Ia/IIb He_1a/2b [1] | He/Con_1a [2] | He/Con_2b [3] | He_2aR/2b (IIaR/IIb) [4] | He/Con_2aR [5] | He/Con_2b [6]
B1 | 2.57 | 89.8 % of control (GpH7-A5/GpH7-B3/GpL16-k0 = 100) | 34.9 % of control (GpH7-A5/GpH7-B3/GpL16-k0 = 100) |  |  | 
B2 | 1.78 | 88.1 % of control (GpH7-A5/GpH7-B3/GpL16-k0 = 100) | 49.4 % of control (GpH7-A5/GpH7-B3/GpL16-k0 = 100) |  |  | 
B3 |  |  |  | 1.49 | 24.1 % of control (GpH7-A5/GpH7-B3/GpL16-k0 = 100) | 16.1 % of control (GpH7-A5/GpH7-B3/GpL16-k0 = 100)
B4 |  |  |  | 1.71 | 33.9 % of control (GpH7-A5/GpH7-B3/GpL16-k0 = 100) | 19.9 % of control (GpH7-A5/GpH7-B3/GpL16-k0 = 100)
B5 |  |  |  | 1.8 | 5.8 % of control (GpH7-A5/GpH7-B3/GpL16-k0 = 100) | 3.2 % of control (GpH7-A5/GpH7-B3/GpL16-k0 = 100)
B6 |  |  |  | 1.79 | 5.6 % of control (GpH7-A5/GpH7-B3/GpL16-k0 = 100) | 3.2 % of control (GpH7-A5/GpH7-B3/GpL16-k0 = 100)
B7 |  |  |  | 1.58 | 15.8 % of control (GpH7-A5/GpH7-B3/GpL16-k0 = 100) | 10 % of control (GpH7-A5/GpH7-B3/GpL16-k0 = 100)
